Results as given in PMC10439913.

Experiments:
[1] = biological target: Domain-11 of human M6P/IGF2R (D11), C-terminally His-tagged (human) (UniProt P11717); test: radioligand binding; competition of cold ligand with [125I]-monoiodotyrosyl-Tyr2-IGF2 for immobilized D11; Kd of the tracer 2 nM
His-tagged IGFBP3 [2] = biological target: His-tagged IGFBP3 (UniProt P17936); test: radioligand binding; saturation binding of 0-5 nM [125I]-monoiodotyrosyl-Tyr2-IGF2 to His-tagged IGFBP3 immobilized on a 96-well plate via neutravidin and Ni-NTA iBodies; 16 h at 5 °C, 100 mM HEPES pH 7.6, 100 mM NaCl, 1% BSA; nonspecific binding with 10 µM unlabeled IGF2
His-tagged IGFBP3, sequence (P17936 28-291): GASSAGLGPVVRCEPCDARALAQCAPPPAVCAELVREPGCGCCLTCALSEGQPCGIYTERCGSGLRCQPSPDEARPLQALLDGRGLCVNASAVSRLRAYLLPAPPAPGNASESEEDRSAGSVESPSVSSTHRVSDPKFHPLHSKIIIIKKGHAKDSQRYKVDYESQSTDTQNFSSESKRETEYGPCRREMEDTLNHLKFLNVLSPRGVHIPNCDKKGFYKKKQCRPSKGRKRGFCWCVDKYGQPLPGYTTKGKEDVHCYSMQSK

[3] = biological target: mannose-6-phosphate/IGF2 receptor (M6P/IGF2R), native in R- cells (mouse (endogenous in R- cells)) (UniProt Q07113); test: radioligand binding; saturation binding of 0-5 nM [125I]-monoiodotyrosyl-Tyr2-IGF2 to 14,000 R- cells per well; 16 h at 5 °C, 100 mM HEPES pH 7.6, 100 mM NaCl, 1% BSA; nonspecific binding with 10 µM unlabeled IGF2; one-site fit
mannose-6-phosphate/IGF2 receptor (M6P/IGF2R), native in R- cells (mouse (endogenous in R- cells)), sequence (Q07113 36-2483): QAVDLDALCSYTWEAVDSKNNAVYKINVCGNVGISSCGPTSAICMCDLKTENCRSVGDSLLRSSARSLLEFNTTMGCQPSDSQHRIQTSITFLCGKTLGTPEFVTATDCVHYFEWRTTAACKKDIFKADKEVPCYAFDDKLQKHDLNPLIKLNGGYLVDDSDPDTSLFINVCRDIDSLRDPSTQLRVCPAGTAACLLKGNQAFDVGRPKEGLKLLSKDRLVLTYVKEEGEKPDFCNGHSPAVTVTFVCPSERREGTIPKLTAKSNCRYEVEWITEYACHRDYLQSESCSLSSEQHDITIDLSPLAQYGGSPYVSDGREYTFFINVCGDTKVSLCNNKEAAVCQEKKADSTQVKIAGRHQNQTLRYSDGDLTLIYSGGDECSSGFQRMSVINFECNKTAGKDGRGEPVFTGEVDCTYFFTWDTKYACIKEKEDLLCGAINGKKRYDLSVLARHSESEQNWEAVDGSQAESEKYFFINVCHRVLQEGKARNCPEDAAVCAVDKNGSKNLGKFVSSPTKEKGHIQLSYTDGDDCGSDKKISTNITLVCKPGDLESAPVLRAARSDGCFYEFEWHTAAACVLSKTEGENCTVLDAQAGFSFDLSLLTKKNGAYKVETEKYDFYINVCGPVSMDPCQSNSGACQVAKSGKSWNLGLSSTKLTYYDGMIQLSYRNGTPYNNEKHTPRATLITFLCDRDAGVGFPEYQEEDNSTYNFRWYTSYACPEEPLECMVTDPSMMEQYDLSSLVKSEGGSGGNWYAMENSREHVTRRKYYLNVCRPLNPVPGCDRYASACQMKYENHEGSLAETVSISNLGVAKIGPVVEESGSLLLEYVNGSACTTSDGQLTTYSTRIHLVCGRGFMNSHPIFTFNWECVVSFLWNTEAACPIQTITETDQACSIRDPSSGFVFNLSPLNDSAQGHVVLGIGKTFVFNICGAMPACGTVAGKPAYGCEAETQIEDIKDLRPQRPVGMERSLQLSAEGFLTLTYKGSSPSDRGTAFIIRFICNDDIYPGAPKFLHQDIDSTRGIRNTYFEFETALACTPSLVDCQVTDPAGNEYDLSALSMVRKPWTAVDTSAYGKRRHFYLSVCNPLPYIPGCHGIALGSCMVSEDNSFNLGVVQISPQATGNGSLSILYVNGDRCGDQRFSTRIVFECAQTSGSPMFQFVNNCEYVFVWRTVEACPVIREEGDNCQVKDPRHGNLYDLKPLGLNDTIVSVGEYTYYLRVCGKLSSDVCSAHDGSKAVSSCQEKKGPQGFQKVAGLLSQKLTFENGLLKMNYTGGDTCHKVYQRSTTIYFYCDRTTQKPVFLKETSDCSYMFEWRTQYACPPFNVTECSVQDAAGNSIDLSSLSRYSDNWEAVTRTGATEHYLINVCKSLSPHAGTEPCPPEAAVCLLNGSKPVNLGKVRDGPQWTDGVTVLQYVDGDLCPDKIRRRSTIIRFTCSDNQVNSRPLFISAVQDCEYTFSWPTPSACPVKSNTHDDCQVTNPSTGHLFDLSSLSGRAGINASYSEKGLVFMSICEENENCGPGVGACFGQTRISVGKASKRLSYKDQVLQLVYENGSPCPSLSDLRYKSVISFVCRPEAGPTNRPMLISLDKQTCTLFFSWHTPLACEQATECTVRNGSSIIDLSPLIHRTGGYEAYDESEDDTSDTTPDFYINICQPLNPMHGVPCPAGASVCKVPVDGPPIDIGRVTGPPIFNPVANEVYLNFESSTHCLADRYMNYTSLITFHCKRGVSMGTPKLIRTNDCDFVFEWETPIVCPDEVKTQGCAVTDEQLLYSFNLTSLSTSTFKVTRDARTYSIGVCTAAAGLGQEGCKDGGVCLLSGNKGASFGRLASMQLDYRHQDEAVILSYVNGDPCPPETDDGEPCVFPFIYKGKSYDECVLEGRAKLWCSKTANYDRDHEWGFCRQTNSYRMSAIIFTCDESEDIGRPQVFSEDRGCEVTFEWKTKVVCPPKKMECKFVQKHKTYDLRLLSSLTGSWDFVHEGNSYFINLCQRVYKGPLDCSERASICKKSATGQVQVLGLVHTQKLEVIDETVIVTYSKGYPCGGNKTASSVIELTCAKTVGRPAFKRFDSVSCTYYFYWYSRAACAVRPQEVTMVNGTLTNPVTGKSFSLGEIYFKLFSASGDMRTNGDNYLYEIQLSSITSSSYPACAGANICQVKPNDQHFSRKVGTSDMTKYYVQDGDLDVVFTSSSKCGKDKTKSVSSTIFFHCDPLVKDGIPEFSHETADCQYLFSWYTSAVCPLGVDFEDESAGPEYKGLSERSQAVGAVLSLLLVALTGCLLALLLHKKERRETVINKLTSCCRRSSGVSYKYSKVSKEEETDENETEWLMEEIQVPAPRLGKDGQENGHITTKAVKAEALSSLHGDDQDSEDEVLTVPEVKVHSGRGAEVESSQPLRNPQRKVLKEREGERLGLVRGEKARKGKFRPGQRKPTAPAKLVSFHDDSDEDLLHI

[4] = biological target: IGFBP3:ALS complex, preformed on immobilized His-tagged ALS (UniProt P35858); test: radioligand binding; saturation binding of 0-5 nM [125I]-monoiodotyrosyl-IGF2 to IGFBP3 (no His-tag, 25 ng/well) preformed in complex with His-tagged ALS (10 ng/well) immobilized via neutravidin and Ni-NTA iBodies; 16 h at 5 °C, 100 mM HEPES pH 7.6, 100 mM NaCl, 1% BSA
His-tagged IGFBP3 [5] = biological target: His-tagged IGFBP3 (UniProt P17936); test: radioligand binding; saturation binding of 0-5 nM [125I]-monoiodotyrosyl-IGF2 to His-tagged IGFBP3 (25 ng/well) immobilized via neutravidin and Ni-NTA iBodies; 16 h at 5 °C, 100 mM HEPES pH 7.6, 100 mM NaCl, 1% BSA
[6] = biological target: mannose-6-phosphate/IGF2 receptor (M6P/IGF2R), native in R- cells (mouse (endogenous in R- cells)) (UniProt Q07113); test: radioligand binding; competition of cold ligand (10^-12-10^-6 M) with [125I]-monoiodotyrosyl-Tyr2-IGF2 (43,000 cpm) for M6P/IGF2R on R- cells; 16 h at 5 °C, 100 mM HEPES pH 7.6, 100 mM NaCl, 1% BSA; affinity relative to IGF2
[7] = biological target: Domain-11 of human M6P/IGF2R (D11) (human) (UniProt P11717); test: radioligand binding; competition of cold ligand with [125I]-monoiodotyrosyl-Tyr2-IGF2 for immobilized D11 (as in ref. 33); affinity relative to IGF2
[8] = biological target: insulin receptor isoform B (IR-B) (human) (UniProt P06213); test: radioligand binding; competition of cold ligand with [125I]-monoiodotyrosyl-TyrA14-insulin for human IR-B on transfected mouse fibroblasts; one-site fit; affinity relative to human insulin
His-tagged IGFBP3 [9] = biological target: His-tagged IGFBP3 (UniProt P17936); test: radioligand binding; competition of cold ligand (10^-12-10^-6 M) with [125I]-monoiodotyrosyl-Tyr2-IGF2 (43,000 cpm) for His-tagged IGFBP3 immobilized via neutravidin and Ni-NTA iBodies; 16 h at 5 °C, HEPES pH 7.6; affinity relative to IGF2
[10] = biological target: IGF1 receptor (IGF1R) (human) (UniProt P08069); test: radioligand binding; competition of cold ligand with [125I]-iodotyrosyl-IGF1 for human IGF-1R on R+39 mouse fibroblasts; one-site fit; affinity relative to IGF1
[11] = biological target: insulin receptor isoform A (IR-A) (human) (UniProt P06213); test: radioligand binding; competition of cold ligand with [125I]-monoiodotyrosyl-TyrA14-insulin for human IR-A on whole IM-9 lymphocytes; one-site fit; affinity relative to human insulin
[12] = biological target: IGFBP3:ALS complex, preformed on immobilized His-tagged ALS (UniProt P35858); test: radioligand binding; competition of cold ligand (10^-12-10^-6 M) with [125I]-monoiodotyrosyl-Tyr2-IGF2 (43,000 cpm) for the IGFBP3:ALS complex immobilized through the His-tag of ALS; 16 h at 5 °C, HEPES pH 7.6; affinity relative to IGF2
His-tagged IGFBP3 [13] = biological target: His-tagged IGFBP3 (UniProt P17936); test: radioligand binding; competition of cold ligand (10^-12-10^-6 M) with [125I]-monoiodotyrosyl-Tyr2-IGF2 for His-tagged IGFBP3 immobilized on a 96-well plate via neutravidin and Ni-NTA iBodies; 16 h at 5 °C, 100 mM HEPES pH 7.6, 100 mM NaCl, 1% BSA
[14] = biological target: human insulin receptor isoform B (IR-B) in transfected mouse fibroblasts (human) (UniProt P06213); test: radioligand binding; competition of cold ligand with [125I]-monoiodotyrosyl-TyrA14-insulin on mouse fibroblasts transfected with human IR-B; Kd by one-site fit, Kd of the tracer 0.3 nM
[15] = biological target: human insulin receptor isoform A (IR-A) in human IM-9 lymphocytes (human) (UniProt P06213); test: radioligand binding; competition of cold ligand with [125I]-monoiodotyrosyl-TyrA14-insulin on human IM-9 lymphocytes; Kd by one-site fit, Kd of the tracer 0.3 nM
[16] = biological target: IGFBP3:ALS complex, preformed on immobilized His-tagged ALS (UniProt P35858); test: radioligand binding; competition of cold ligand (10^-12-10^-6 M) with [125I]-monoiodotyrosyl-Tyr2-IGF2 for the IGFBP3:ALS complex immobilized through the His-tag of ALS; 16 h at 5 °C, 100 mM HEPES pH 7.6, 100 mM NaCl, 1% BSA; Kd of the tracer 5.9 nM
[17] = biological target: human IGF1 receptor in transfected mouse fibroblasts (R+39 cells) (human) (UniProt P08069); test: radioligand binding; competition of cold ligand with [125I]-iodotyrosyl-IGF1 on R+39 cells (mouse fibroblasts with human IGF-1R); Kd by one-site fit, Kd of the tracer 0.2 nM
[18] = biological target: native M6P/IGF2R in R- cells (mouse embryonic fibroblasts) (mouse (endogenous in R- cells)) (UniProt Q07113); test: radioligand binding; competition of cold ligand (10^-12-10^-6 M) with [125I]-monoiodotyrosyl-Tyr2-IGF2 on R- cells; 16 h at 5 °C, 100 mM HEPES pH 7.6, 100 mM NaCl, 1 mM EDTA, 1% BSA; Kd of the tracer 8.2 nM

Domain-11 of human M6P/IGF2R (D11), C-terminally His-tagged (human), sequence (P11717 41-2491): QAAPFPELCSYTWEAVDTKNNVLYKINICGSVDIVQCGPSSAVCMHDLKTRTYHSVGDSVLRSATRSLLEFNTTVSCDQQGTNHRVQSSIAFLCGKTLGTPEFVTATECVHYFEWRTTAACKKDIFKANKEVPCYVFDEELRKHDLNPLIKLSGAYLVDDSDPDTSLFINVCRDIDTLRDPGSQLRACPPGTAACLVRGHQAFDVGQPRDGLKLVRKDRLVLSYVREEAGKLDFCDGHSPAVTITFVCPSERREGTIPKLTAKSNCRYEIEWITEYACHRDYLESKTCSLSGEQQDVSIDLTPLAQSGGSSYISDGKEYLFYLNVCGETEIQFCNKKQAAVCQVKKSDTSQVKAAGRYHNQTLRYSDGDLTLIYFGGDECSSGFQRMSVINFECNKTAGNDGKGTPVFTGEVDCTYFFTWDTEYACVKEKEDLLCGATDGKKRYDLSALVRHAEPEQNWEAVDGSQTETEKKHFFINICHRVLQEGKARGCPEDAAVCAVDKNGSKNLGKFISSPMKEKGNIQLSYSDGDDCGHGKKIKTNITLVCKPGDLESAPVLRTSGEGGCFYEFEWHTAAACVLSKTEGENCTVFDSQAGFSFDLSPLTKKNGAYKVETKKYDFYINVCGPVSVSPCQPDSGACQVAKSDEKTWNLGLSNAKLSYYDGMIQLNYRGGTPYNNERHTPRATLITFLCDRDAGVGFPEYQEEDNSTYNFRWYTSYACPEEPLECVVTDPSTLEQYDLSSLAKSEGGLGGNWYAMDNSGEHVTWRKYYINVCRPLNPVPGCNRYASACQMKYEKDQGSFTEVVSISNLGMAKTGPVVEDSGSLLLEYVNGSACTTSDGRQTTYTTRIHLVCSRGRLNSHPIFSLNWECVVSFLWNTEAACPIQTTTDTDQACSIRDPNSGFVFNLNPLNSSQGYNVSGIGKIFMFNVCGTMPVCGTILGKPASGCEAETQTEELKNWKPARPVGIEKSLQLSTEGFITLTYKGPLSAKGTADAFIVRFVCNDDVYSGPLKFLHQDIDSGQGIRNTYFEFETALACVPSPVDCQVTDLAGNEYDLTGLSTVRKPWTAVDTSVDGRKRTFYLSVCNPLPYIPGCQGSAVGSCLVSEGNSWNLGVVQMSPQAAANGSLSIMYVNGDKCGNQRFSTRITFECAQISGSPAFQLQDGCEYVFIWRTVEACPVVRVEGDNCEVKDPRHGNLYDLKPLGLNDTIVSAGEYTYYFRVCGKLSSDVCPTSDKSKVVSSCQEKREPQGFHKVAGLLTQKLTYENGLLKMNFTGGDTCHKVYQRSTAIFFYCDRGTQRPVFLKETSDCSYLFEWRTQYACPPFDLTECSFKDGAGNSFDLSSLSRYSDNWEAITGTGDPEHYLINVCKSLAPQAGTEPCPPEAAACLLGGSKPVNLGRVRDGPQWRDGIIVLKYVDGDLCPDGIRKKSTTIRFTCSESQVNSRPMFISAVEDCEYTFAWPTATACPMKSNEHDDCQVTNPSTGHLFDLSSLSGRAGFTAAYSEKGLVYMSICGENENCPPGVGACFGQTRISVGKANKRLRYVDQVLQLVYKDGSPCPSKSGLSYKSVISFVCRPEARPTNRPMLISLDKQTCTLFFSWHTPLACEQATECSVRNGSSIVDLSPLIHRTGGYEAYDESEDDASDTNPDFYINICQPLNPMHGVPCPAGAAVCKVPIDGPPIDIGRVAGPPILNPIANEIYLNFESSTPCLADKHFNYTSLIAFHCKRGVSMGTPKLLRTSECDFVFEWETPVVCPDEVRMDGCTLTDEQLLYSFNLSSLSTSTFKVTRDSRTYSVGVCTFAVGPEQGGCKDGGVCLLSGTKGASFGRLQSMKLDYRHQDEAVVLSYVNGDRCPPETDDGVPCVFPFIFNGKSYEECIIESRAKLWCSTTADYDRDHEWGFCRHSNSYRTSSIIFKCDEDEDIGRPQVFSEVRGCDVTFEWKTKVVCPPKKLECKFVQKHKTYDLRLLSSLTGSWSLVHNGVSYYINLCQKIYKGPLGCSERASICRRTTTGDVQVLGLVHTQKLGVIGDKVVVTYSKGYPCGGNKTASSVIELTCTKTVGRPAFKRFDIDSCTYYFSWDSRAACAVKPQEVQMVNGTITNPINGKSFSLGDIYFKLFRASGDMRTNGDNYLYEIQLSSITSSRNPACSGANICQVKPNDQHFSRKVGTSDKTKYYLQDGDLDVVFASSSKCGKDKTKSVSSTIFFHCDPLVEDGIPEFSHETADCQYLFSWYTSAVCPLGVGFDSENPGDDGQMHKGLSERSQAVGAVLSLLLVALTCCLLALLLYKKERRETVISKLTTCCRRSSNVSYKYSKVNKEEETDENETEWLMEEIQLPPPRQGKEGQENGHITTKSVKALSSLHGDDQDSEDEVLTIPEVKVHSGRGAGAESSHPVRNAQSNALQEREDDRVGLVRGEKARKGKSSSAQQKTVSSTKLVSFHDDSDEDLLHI

Work on “Insulin-like Growth Factor-2 (IGF2), native mature 67-amino-acid protein (from UniProt P01344 25-91) (ligand)” yielded a Kd [1] of 1.29 nM.

For “[125I]-monoiodotyrosyl-Tyr2-IGF2 (ligand)”, the Kd (His-tagged IGFBP3 [2]) was 0.59 nM.

For “[^125I]-monoiodotyrosyl-Tyr2-IGF2 (ligand)”, the Kd [3] was 8.2 nM, the Kd [4] was 5.9 nM and the Kd (His-tagged IGFBP3 [5]) was 0.56 nM.

big-IGF2(87) (ligand) gave a relative binding affinity (% of IGF2) [6] of 227%, a relative binding affinity (% of IGF2) [7] of 73% and a relative binding affinity (% of human insulin) [8] of 2.7%. For the same substance, the relative binding affinity (% of IGF2) (His-tagged IGFBP3 [9]) was 70%, the relative binding affinity (% of IGF1) [10] was 14.8% and the relative binding affinity (% of human insulin) [11] was 7.1%. The relative binding affinity (% of IGF2) [12] was 58%.

Work on big-IGF2(87), non-glycosylated (ligand) yielded a Kd (His-tagged IGFBP3 [13]) of 0.29 nM, a Kd [14] of 9.47 nM and a Kd [15] of 3.82 nM. For the same substance, the Kd [16] was 1.63 nM, the Kd [1] was 1.77 nM and the Kd [17] was 1.6 nM. For the same substance, the Kd [18] was 0.56 nM.

Work on big-IGF2(104) (ligand) yielded a relative binding affinity (% of IGF2) [6] of 887%, a relative binding affinity (% of IGF2) [7] of 698% and a relative binding affinity (% of human insulin) [8] of 2.9%. It also gave a relative binding affinity (% of IGF2) (His-tagged IGFBP3 [9]) of 146%, a relative binding affinity (% of IGF1) [10] of 9.7% and a relative binding affinity (% of human insulin) [11] of 9.8%. For the same substance, the relative binding affinity (% of IGF2) [12] was 17%.

In the case of “big-IGF2(104), non-glycosylated (ligand)”, the Kd (His-tagged IGFBP3 [13]) is reported as 0.14 nM, the Kd [14] is reported as 8.83 nM and the Kd [15] is reported as 2.75 nM. For the same substance, the Kd [16] was 5.58 nM, the Kd [1] was 0.19 nM and the Kd [17] was 2.48 nM. The Kd [18] was 0.14 nM.

Substance “pro-IGF2(156), non-glycosylated (from UniProt P01344 25-180) (ligand)” has a Kd [1] of 2.31 nM.
